From patent US20060153834A1
Blank lines part the entries; values can stand above or below the molecule they belong to. No end group written: not given here.

Legend:
14C-HIgG (human) [1] = test: secondary screening, batch, HIgG non-competitive (PBS), Micro-BCA
[2] = biological target: 14C-Fc fragment of HIgG (human); test: secondary screening, batch, Fc fragment competitive (spiked in MEM)
[3] = biological target: 14C-Fc fragment of HIgG (human); test: secondary screening, batch, Fc fragment non-competitive (PBS)
14C-HIgG (human) [4] = test: secondary screening, batch, HIgG competitive (spiked in MEM)
Human IgG (HIgG) (human) [5] = test: batch adsorption isotherm, PBS pH 7.4, peptide resin 0.1 meq/g, direct Langmuir fit
Human IgG (HIgG) (human) [6] = test: batch adsorption isotherm, PBS pH 7.4, peptide resin 0.1 meq/g, double reciprocal curve
14C-HIgG (human) [7] = test: second round of secondary screening, batch, competitive (MEM), 14C counting
14C-HIgG (human) [8] = test: second round of secondary screening, batch, non-competitive (PBS)
Human IgG (HIgG) (human) [9] = test: ratio of ligand to protein at maximum capacity, Ac-HWRGWV resin at 0.080 mmol/g
Human IgG (HIgG) (human) [10] = test: batch adsorption isotherm, PBS pH 7.4, Ac-HWRGWV resin at 0.080 mmol/g, Langmuir fit
Human IgG (HIgG) (human) [11] = test: ratio of ligand to protein at maximum capacity, HWRGWV resin at 0.022 mmol/g
Human IgG (HIgG) (human) [12] = test: ratio of ligand to protein at maximum capacity, HWRGWV resin at 0.55 mmol/g
Human IgG (HIgG) (human) [13] = test: ratio of ligand to protein at maximum capacity, HWRGWV resin at 0.040 mmol/g
Human IgG (HIgG) (human) [14] = test: batch adsorption isotherm, PBS pH 7.4, HWRGWV resin at 0.040 mmol/g, Langmuir fit
Human IgG (HIgG) (human) [15] = test: batch adsorption isotherm, PBS pH 7.4, HWRGWV resin at 0.55 mmol/g, Langmuir fit
Human IgG (HIgG) (human) [16] = test: ratio of ligand to protein at maximum capacity, HWRGWV resin at 0.080 mmol/g
Human IgG (HIgG) (human) [17] = test: batch adsorption isotherm, PBS pH 7.4, HWRGWV resin at 0.22 mmol/g, Langmuir fit
Human IgG (HIgG) (human) [18] = test: ratio of ligand to protein at maximum capacity, HWRGWV resin at 0.10 mmol/g
Human IgG (HIgG) (human) [19] = test: ratio of ligand to protein at maximum capacity, HWRGWV resin at 0.22 mmol/g
Human IgG (HIgG) (human) [20] = test: batch adsorption isotherm, PBS pH 7.4, HWRGWV resin at 0.10 mmol/g, Langmuir fit
Human IgG (HIgG) (human) [21] = test: batch adsorption isotherm, PBS pH 7.4, HWRGWV resin at 0.080 mmol/g, Langmuir fit
Human IgG (HIgG) (human) [22] = test: batch adsorption isotherm, PBS pH 7.4, HWRGWV resin at 0.022 mmol/g, Langmuir fit

Bound % (14C-HIgG (human) [1]): 11.2%
Bound % [2]: 24.5%
Bound % [3]: 21.5%
Bound % (14C-HIgG (human) [4]): 4.51%
Molecule: HRPKIF (peptide)

Bound % (14C-HIgG (human) [1]): 66.2%
Bound % [2]: 16.5%
Kd (Human IgG (HIgG) (human) [5]): 1.39 µM
qm (maximum capacity) (Human IgG (HIgG) (human) [5]): 62.4 mg/g
Bound % [3]: 88.2%
Bound % (14C-HIgG (human) [4]): 10.9%
Kd (Human IgG (HIgG) (human) [6]): 2.47 µM
qm (maximum capacity) (Human IgG (HIgG) (human) [6]): 81.9 mg/g
B1: WHWRKR (peptide)
peptide: WHWRKRA-{Toyopearl AF‑Amino‑650 resin}

Bound % (14C-HIgG (human) [1]): 91.3%
Bound % [2]: 8.85%
Kd (Human IgG (HIgG) (human) [5]): 0.297 µM
qm (maximum capacity) (Human IgG (HIgG) (human) [5]): 113 mg/g
Bound % [3]: 40.4%
Bound % (14C-HIgG (human) [4]): 41.9%
Kd (Human IgG (HIgG) (human) [6]): 0.215 µM
qm (maximum capacity) (Human IgG (HIgG) (human) [6]): 95.1 mg/g
B2: YYWLHH (peptide)
peptide: YYWLHHA-{Toyopearl AF‑Amino‑650 resin}

Bound % (14C-HIgG (human) [1]): 10.7%
Bound % [2]: 4.28%
Bound % [3]: 12.9%
Bound % (14C-HIgG (human) [4]): 6.01%
B3: HFDKGF (peptide)
peptide: HFDKGFA-{Toyopearl AF‑Amino‑650 resin}

Bound (14C-HIgG (human) [7]): 7.34%
Unbound (14C-HIgG (human) [7]): 92.7%
Bound (14C-HIgG (human) [8]): 6.08%
Unbound (14C-HIgG (human) [8]): 93.9%
B4: KGEA (peptide)
peptide: KGEA-{Toyopearl AF‑Amino‑650 resin}

Bound % (14C-HIgG (human) [1]): 10.5%
Bound % [2]: 25.6%
Bound % [3]: 10.2%
Bound % (14C-HIgG (human) [4]): 5.58%
B5: HANGFL (peptide)
peptide: HANGFLA-{Toyopearl AF‑Amino‑650 resin}

peptide/protein, mol/mol (Human IgG (HIgG) (human) [9]): 92 mol/mol
Kd (Human IgG (HIgG) (human) [10]): 3.8 µM
qm (maximum capacity) (Human IgG (HIgG) (human) [10]): 131 mg/g
B6: Ac-HWRGWV (peptide)
peptide: Ac-HWRGWVA-{Toyopearl AF‑Amino‑650 resin}

Bound (14C-HIgG (human) [7]): 19.9%
Unbound (14C-HIgG (human) [7]): 80.1%
Bound (14C-HIgG (human) [8]): 9.03%
Unbound (14C-HIgG (human) [8]): 91%
B7: HWIDPL (peptide)
peptide: HWIDPLA-{Toyopearl AF‑Amino‑650 resin}

Bound (14C-HIgG (human) [7]): 8.64%
Unbound (14C-HIgG (human) [7]): 91.4%
B8: HYIDAK (peptide)
peptide: HYIDAKA-{Toyopearl AF‑Amino‑650 resin}

Bound % (14C-HIgG (human) [1]): 9.16%
Bound % [2]: 3.2%
Bound % [3]: 18%
Bound % (14C-HIgG (human) [4]): 5.5%
B9: HEILYW (peptide)
peptide: HEILYWA-{Toyopearl AF‑Amino‑650 resin}

Bound (14C-HIgG (human) [7]): 27%
Unbound (14C-HIgG (human) [7]): 73%
B10: HPWYVT (peptide)
peptide: HPWYVTA-{Toyopearl AF‑Amino‑650 resin}

Bound (14C-HIgG (human) [7]): 17.3%
Unbound (14C-HIgG (human) [7]): 82.7%
B11: KRGFYY (peptide)
peptide: KRGFYYA-{Toyopearl AF‑Amino‑650 resin}

Bound (14C-HIgG (human) [7]): 8.55%
Unbound (14C-HIgG (human) [7]): 91.5%
B12: HDVFHT (peptide)
peptide: HDVFHTA-{Toyopearl AF‑Amino‑650 resin}

Bound (14C-HIgG (human) [7]): 12.9%
Unbound (14C-HIgG (human) [7]): 87.1%
Bound (14C-HIgG (human) [8]): 7.9%
Unbound (14C-HIgG (human) [8]): 92.1%
B13: HIWA (peptide)
peptide: HIWA-{Toyopearl AF‑Amino‑650 resin}

Bound % (14C-HIgG (human) [1]): 62.2%
peptide/protein, mol/mol (Human IgG (HIgG) (human) [11]): 21 mol/mol
peptide/protein, mol/mol (Human IgG (HIgG) (human) [12]): 600 mol/mol
Bound % [2]: 8.13%
peptide/protein, mol/mol (Human IgG (HIgG) (human) [13]): 41 mol/mol
Kd (Human IgG (HIgG) (human) [14]): 20.3 µM
qm (maximum capacity) (Human IgG (HIgG) (human) [14]): 148 mg/g
Kd (Human IgG (HIgG) (human) [15]): 0.947 µM
qm (maximum capacity) (Human IgG (HIgG) (human) [15]): 138 mg/g
peptide/protein, mol/mol (Human IgG (HIgG) (human) [16]): 91 mol/mol
Kd (Human IgG (HIgG) (human) [5]): 1.33 µM
qm (maximum capacity) (Human IgG (HIgG) (human) [5]): 50 mg/g
Kd (Human IgG (HIgG) (human) [17]): 2.58 µM
qm (maximum capacity) (Human IgG (HIgG) (human) [17]): 137 mg/g
Bound % [3]: 82.5%
peptide/protein, mol/mol (Human IgG (HIgG) (human) [18]): 112 mol/mol
peptide/protein, mol/mol (Human IgG (HIgG) (human) [19]): 241 mol/mol
Kd (Human IgG (HIgG) (human) [20]): 10.4 µM
qm (maximum capacity) (Human IgG (HIgG) (human) [20]): 134 mg/g
Kd (Human IgG (HIgG) (human) [21]): 7.25 µM
qm (maximum capacity) (Human IgG (HIgG) (human) [21]): 132 mg/g
Kd (Human IgG (HIgG) (human) [22]): 30 µM
qm (maximum capacity) (Human IgG (HIgG) (human) [22]): 158 mg/g
Bound % (14C-HIgG (human) [4]): 24.4%
Kd (Human IgG (HIgG) (human) [6]): 2.8 µM
qm (maximum capacity) (Human IgG (HIgG) (human) [6]): 54.8 mg/g
B14: HWRGWV (peptide)
peptide: HWRGWVA-{Toyopearl AF‑Amino‑650 resin}

Bound % (14C-HIgG (human) [1]): 17.9%
Bound % [2]: 4.91%
Bound % [3]: 19.8%
Bound % (14C-HIgG (human) [4]): 14.5%
B15: HYGLGW (peptide)
peptide: HYGLGWA-{Toyopearl AF‑Amino‑650 resin}

Bound (14C-HIgG (human) [7]): 15.1%
Unbound (14C-HIgG (human) [7]): 85%
B16: HVWQLK (peptide)
peptide: HVWQLKA-{Toyopearl AF‑Amino‑650 resin}

Bound (14C-HIgG (human) [7]): 43.3%
Unbound (14C-HIgG (human) [7]): 56.7%
Bound (14C-HIgG (human) [8]): 69.3%
Unbound (14C-HIgG (human) [8]): 30.7%
Kd (Human IgG (HIgG) (human) [5]): 11.4 µM
qm (maximum capacity) (Human IgG (HIgG) (human) [5]): 127 mg/g
B17: HYFKFD (peptide)
peptide: HYFKFDA-{Toyopearl AF‑Amino‑650 resin}

Bound (14C-HIgG (human) [7]): 40.9%
Unbound (14C-HIgG (human) [7]): 59.1%
Kd (Human IgG (HIgG) (human) [5]): 26.4 µM
qm (maximum capacity) (Human IgG (HIgG) (human) [5]): 158 mg/g
B18: HFRRHL (peptide)
peptide: HFRRHLA-{Toyopearl AF‑Amino‑650 resin}

Bound (14C-HIgG (human) [7]): 43.3%
Unbound (14C-HIgG (human) [7]): 56.7%
Bound (14C-HIgG (human) [8]): 55.5%
Unbound (14C-HIgG (human) [8]): 44.5%
Kd (Human IgG (HIgG) (human) [5]): 20.3 µM
qm (maximum capacity) (Human IgG (HIgG) (human) [5]): 129 mg/g
B19: HVHYYW (peptide)
peptide: HVHYYWA-{Toyopearl AF‑Amino‑650 resin}

Bound (14C-HIgG (human) [7]): 19.9%
Unbound (14C-HIgG (human) [7]): 80.1%
Bound (14C-HIgG (human) [8]): 14.4%
Unbound (14C-HIgG (human) [8]): 85.6%
B20: HWGPTK (peptide)
peptide: HWGPTKA-{Toyopearl AF‑Amino‑650 resin}

Bound (14C-HIgG (human) [7]): 23.5%
Unbound (14C-HIgG (human) [7]): 76.5%
B21: HLKWYA (peptide)
peptide: HLKWYAA-{Toyopearl AF‑Amino‑650 resin}

Bound (14C-HIgG (human) [7]): 10%
Unbound (14C-HIgG (human) [7]): 90%
B22: HIQLDG (peptide)
peptide: HIQLDGA-{Toyopearl AF‑Amino‑650 resin}

Bound (14C-HIgG (human) [7]): 12.2%
Unbound (14C-HIgG (human) [7]): 87.8%
B23: KLQWVH (peptide)
peptide: KLQWVHA-{Toyopearl AF‑Amino‑650 resin}
